Measured values: PMC10772121 (Scientific Reports, 2024)
“And” between values parts separate entries of the source, which are not always exact repeats. Equal values may be shown once.

B1: lirilumab (IgG1) (antibody, V domains shown)
VH: QVQLVQSGAEVKKPGSSVKVSCKASGGTFSFYAISWVRQAPGQGLEWMGGFIPIFGAANYAQKFQGRVTITADESTSTAYMELSSLRSDDTAVYYCARIPSGSYYYDYDMDVWGQGTTVTVSS
VL: EIVLTQSPVTLSLSPGERATLSCRASQSVSSYLAWYQQKPGQAPRLLIYDASNRATGIPARFSGSGSGTDFTLTISSLEPEDFAVYYCQQRSNWMYTFGQGTKLEIK
B2: lirilumab (IgG1) (antibody, V domains shown)
VH: B1 VH
VL: B1 VL

Assays:
Details in all cases: both partners purified
[1] = target: T1, KIR2DL1 (Sino Biological 13,145-H08H) (Homo sapiens; allele of bought protein …, UniProt P43626-1); assay: BLI; lirilumab (IgG1) loaded on AHC (anti-human IgG) biosensors, KIR protein as analyte (two-fold dilutions from 250 nM); Octet RED384, 25 °C, 20 mM MOPS pH 7.5, 150 mM NaCl, 0.1% BSA, 0.02% Tween-20; global 1:1 binding model, at least 4 curves; single replicates
T1 construct: human KIR2DL1, commercially sourced recombinant protein; The catalogue product is recalled to be the extracellular domain with a C-terminal His tag; also called KIR2DL1 (293, Sino Biological); source: bought: Sino Biological 13,145-H08H (293)
T1 sequence (P43626 22-245): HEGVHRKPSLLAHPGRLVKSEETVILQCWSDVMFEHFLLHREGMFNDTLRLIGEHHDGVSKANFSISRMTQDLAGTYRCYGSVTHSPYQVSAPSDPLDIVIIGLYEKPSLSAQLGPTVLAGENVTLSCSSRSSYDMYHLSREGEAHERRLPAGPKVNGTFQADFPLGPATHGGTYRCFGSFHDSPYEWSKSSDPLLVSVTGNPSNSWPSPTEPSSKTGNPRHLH

KIR2DL3 H50R ectodomain = target: T2, KIR2DL3 H50R ectodomain (Homo sapiens, UniProt P43628-1, H50R); assay: as above
T2 construct: also called KIR2DL3 H50R (293F); Var7; source: HEK 293F supernatant, purified (EDTA-resistant Ni-NTA, size exclusion chromatography)
T2 sequence (P43628 22-245 H71R): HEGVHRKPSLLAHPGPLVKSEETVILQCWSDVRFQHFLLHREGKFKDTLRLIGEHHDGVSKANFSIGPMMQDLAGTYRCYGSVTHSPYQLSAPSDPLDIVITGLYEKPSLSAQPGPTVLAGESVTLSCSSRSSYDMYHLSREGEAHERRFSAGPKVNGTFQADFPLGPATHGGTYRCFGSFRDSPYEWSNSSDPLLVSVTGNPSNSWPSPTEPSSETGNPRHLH

KIR2DL3 F45Y ectodomain = target: T3, KIR2DL3 F45Y ectodomain (Homo sapiens, UniProt P43628-1, F45Y); assay: as above
T3 construct: also called KIR2DL3 F45Y (293F); Var4; source: HEK 293F supernatant, purified (EDTA-resistant Ni-NTA, size exclusion chromatography)
T3 sequence (P43628 22-245 F66Y): as the sequence (P43628 22-245 H71R) above, with F45Y, R50H counted along it

KIR2DL3 ectodomain = target: T4, KIR2DL3 ectodomain (Homo sapiens, UniProt P43628-1); assay: as above
T4 construct: also called wild-type KIR2DL3; KIR2DL3 (293F); source: HEK 293F supernatant, purified (EDTA-resistant Ni-NTA, size exclusion chromatography)
T4 sequence (P43628 22-245): as the sequence (P43628 22-245 H71R) above, with R50H counted along it

KIR2DL3 D47N ectodomain = target: T5, KIR2DL3 D47N ectodomain (Homo sapiens, UniProt P43628-1, D47N); assay: BLI; lirilumab (IgG1) loaded on AHC biosensors, KIR2DL3 D47N as analyte (peak concentration 500 nM); Octet RED384, 25 °C, 20 mM MOPS pH 7.5, 150 mM NaCl, 0.1% BSA, 0.02% Tween-20; steady state binding model because the 1:1 model fitted poorly; single replicates
T5 construct: also called KIR2DL3 D47N (293F); Var6; source: HEK 293F supernatant, purified (EDTA-resistant Ni-NTA, size exclusion chromatography)
T5 sequence (P43628 22-245 D68N): as the sequence (P43628 22-245 H71R) above, with D47N, R50H counted along it

KIR2DL3 D47N = target: T6, KIR2DL3 D47N (Homo sapiens, UniProt P43628-1, D47N); assay: BLI; lirilumab (IgG1) loaded on anti-human IgG (AHC) biosensors, KIR2DL3 D47N as analyte, two-fold dilutions from 500 nM; 25 °C; 20 mM MOPS pH 7.5, 150 mM NaCl, 0.1% BSA, 0.02% Tween-20; steady state equilibrium model (kinetic fit unsuccessful); average of 3 technical replicates
T6 construct: also called KIR2DL3 D47N variant; KIR2DL3 D47N mutant; source: HEK 293F, purified as the CHO-S protein (HisTrap FF)
T6 sequence (P43628 22-245 D68N): as the sequence (P43628 22-245 H71R) above, with D47N, R50H counted along it

KIR2DL3 F45Y = target: T7, KIR2DL3 F45Y (Homo sapiens, UniProt P43628-1, F45Y); assay: BLI; lirilumab (IgG1) loaded on anti-human IgG (AHC) biosensors, KIR protein as analyte, 6 two-fold dilutions from 250 nM; 25 °C; 20 mM MOPS pH 7.5, 150 mM NaCl, 0.1% BSA, 0.02% Tween-20; global 1:1 fit; average of 3 technical replicates
T7 construct: also called KIR2DL3 F45Y variant; source: HEK 293F, purified as the CHO-S protein (HisTrap FF)
T7 sequence (P43628 22-245 F66Y): as the sequence (P43628 22-245 H71R) above, with F45Y, R50H counted along it

[2] = target: T8, wild-type KIR2DL3 ectodomain (HEK 293F) (Homo sapiens, UniProt P43628-1); assay: as above
T8 construct: Same construct as m3 but expressed in HEK 293F cells for BLI; source: HEK 293F, purified as the CHO-S protein (HisTrap FF)
T8 sequence (P43628 22-245): as the sequence (P43628 22-245 H71R) above, with R50H counted along it

KIR2DL3 H50R = target: T9, KIR2DL3 H50R (Homo sapiens, UniProt P43628-1, H50R); assay: as above
T9 construct: also called KIR2DL3 H50R variant; source: HEK 293F, purified as the CHO-S protein (HisTrap FF)
T9 sequence (P43628 22-245 H71R): as the sequence (P43628 22-245 H71R) above

[3] = target: T10, Commercially sourced KIR2DL1 (Sino Biological 13,145-H08H) (Homo sapiens; allele of bought protein …, UniProt P43626-1); assay: as above
T10 construct: KIR2DL1, commercially sourced recombinant protein; source: bought: Sino Biological
T10 sequence (P43626 22-245): as the sequence (P43626 22-245) above

Binder	Kd [1]	koff [1]	kon [1]	Kd (KIR2DL3 H50R ectodomain)	koff (KIR2DL3 H50R ectodomain)	kon (KIR2DL3 H50R ectodomain)	Kd (KIR2DL3 F45Y ectodomain)	koff (KIR2DL3 F45Y ectodomain)	kon (KIR2DL3 F45Y ectodomain)	Kd (KIR2DL3 ectodomain)	koff (KIR2DL3 ectodomain)	kon (KIR2DL3 ectodomain)	Kd (KIR2DL3 D47N ectodomain)	Kd (KIR2DL3 D47N) [nM]	Kd (KIR2DL3 F45Y) [nM]	Kd [2] [nM]	Kd (KIR2DL3 H50R) [nM]	Kd [3] [nM]
B1	11.5 nM and 9.6 nM and 8.8 nM	0.000954 s⁻¹ and 0.000995 s⁻¹ and 0.000947 s⁻¹	83200 M⁻¹ s⁻¹ and 104000 M⁻¹ s⁻¹ and 107000 M⁻¹ s⁻¹	7.98 nM and 10.6 nM and 15 nM	0.00195 s⁻¹ and 0.00244 s⁻¹ and 0.00317 s⁻¹	244000 M⁻¹ s⁻¹ and 231000 M⁻¹ s⁻¹ and 212000 M⁻¹ s⁻¹	10.2 nM and 10.8 nM and 8.5 nM	0.00125 s⁻¹ and 0.00155 s⁻¹ and 0.00145 s⁻¹	122000 M⁻¹ s⁻¹ and 144000 M⁻¹ s⁻¹ and 170000 M⁻¹ s⁻¹	1.64 nM and 2.83 nM and 3.78 nM	0.000366 s⁻¹ and 0.000622 s⁻¹ and 0.000892 s⁻¹	224000 M⁻¹ s⁻¹ and 220000 M⁻¹ s⁻¹ and 236000 M⁻¹ s⁻¹	1400 nM and 1900 nM					
B2														1650	9.9	2.8	11.2	10
